# From IntAct's records for PubMed 17259181
# B1: Zinc finger protein ZAT7 (Arabidopsis thaliana (Mouse-ear cress)), Q42453 (parent)
# chain: MVARSEEIVIVEEDTTAKCLMLLSRVGECGGGCGGDERVFRCKTCLKEFSSFQALGGHRASHKKLINSDNPSLLGSLSNKKTKTSHPCPICGVKFPMGQALGGHMRRHRNEKVSGSLVTRSFLPETTTVTALKKFSSGKRVACLDLDLDSMESLVNWKLELGRTISWS
# partner: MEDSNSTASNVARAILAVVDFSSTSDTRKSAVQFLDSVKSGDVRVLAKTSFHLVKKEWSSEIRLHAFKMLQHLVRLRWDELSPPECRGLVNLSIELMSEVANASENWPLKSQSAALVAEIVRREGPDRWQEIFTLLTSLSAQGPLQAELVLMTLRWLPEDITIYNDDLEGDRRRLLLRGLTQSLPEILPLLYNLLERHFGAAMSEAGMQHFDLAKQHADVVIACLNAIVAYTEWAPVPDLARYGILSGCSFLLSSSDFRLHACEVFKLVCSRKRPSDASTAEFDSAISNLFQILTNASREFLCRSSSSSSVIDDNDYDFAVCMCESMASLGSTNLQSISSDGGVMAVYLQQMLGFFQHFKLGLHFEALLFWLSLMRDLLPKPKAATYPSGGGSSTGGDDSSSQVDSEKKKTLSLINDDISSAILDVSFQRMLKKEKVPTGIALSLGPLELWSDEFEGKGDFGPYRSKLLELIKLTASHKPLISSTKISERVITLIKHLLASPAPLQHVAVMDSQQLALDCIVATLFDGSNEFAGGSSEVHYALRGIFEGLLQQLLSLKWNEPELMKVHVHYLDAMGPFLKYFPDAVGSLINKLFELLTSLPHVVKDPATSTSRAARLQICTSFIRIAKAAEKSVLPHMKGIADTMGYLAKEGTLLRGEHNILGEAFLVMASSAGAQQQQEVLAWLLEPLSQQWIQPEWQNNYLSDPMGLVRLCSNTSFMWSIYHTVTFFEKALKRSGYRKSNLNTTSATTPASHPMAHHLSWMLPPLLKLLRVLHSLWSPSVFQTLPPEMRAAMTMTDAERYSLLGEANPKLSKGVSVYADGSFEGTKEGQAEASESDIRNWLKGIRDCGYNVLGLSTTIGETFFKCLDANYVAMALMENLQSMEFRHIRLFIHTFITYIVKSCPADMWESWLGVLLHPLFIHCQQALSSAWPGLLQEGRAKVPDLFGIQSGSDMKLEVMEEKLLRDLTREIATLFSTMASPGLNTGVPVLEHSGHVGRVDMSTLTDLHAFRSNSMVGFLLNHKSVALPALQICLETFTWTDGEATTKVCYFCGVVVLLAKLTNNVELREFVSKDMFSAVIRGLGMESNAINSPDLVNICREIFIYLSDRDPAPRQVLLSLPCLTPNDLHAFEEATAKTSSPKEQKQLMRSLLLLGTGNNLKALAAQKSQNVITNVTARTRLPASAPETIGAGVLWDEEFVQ
# Variants of: B1
# Conditions: with hasty_arath HST1, Q0WP44
row,Variant,effect of a mutation on the interaction
1,D145A;L146A;D147A,disrupting interaction
